For test [1], the target named is cytoplasmic dynein-1 heavy chain, naturally occurring in Vero cells (African green monkey (endogenous in Vero)). The test can be described thus: proximity ligation; Vero cells infected with ZIKV MR766 at MOI 1, fixed at 18 h.p.i.; mouse monoclonal anti-E and rabbit polyclonal anti-NTDyn; PLA dots counted in 100 cells.
Test [2] shares this target. The experiment in a line: proximity ligation; Vero cells infected with ZIKV MR766 at MOI 1, fixed at 12 and 24 h.p.i.; mouse monoclonal anti-E and rabbit polyclonal anti-NTDyn.

In test [1], “Zika virus (ZIKV) envelope protein (E), MR766 strain (natural protein)” came in with a PLA dots per cell (18 h.p.i.) (PLA dots per cell) greater than 6 and a PLA dots per cell (mean, 18 h.p.i.) (PLA dots per cell) of 2.9. This substance returned a PLA dots per cell (12 and 24 h.p.i.) (PLA dots per cell) in test [2] of less than 1.
